Experimental data published in publication PMC10425327.

Target: T1, complement C5a receptor (mouse (endogenous in Peyer's patch LysoDCs)) (UniProt P30993)
T1 sequence: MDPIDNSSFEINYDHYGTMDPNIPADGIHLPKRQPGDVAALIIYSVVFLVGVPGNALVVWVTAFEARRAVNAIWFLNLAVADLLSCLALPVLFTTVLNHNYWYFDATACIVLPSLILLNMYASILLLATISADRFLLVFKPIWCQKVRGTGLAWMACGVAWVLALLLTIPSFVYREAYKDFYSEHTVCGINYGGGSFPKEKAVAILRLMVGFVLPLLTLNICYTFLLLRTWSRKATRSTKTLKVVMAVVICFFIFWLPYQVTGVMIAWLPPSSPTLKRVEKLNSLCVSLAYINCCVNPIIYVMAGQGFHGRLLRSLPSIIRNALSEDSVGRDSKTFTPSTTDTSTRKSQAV

- CCL2 (MCP-1) in the culture supernatant of C5aR+ LysoDCs treated with Co1 peptide (10 uM, 24 h), against untreated C5aR+ LysoDCs and Co1-treated C5aR- LysoDCs: > 2 fold
- CCL3 (MIP-1alpha) in the culture supernatant of C5aR+ LysoDCs treated with Co1 peptide (10 uM, 24 h), against untreated C5aR+ LysoDCs and Co1-treated C5aR- LysoDCs: > 2 fold
Binder: SFHQLPARSPLP [Co1 peptide]
